Measured values taken from publication PMC12502779.

Target: T1, 6xHis-OxyR (Salmonella enterica serovar Typhi ISP1820) (UniProt Q8XF66)
T1 sequence: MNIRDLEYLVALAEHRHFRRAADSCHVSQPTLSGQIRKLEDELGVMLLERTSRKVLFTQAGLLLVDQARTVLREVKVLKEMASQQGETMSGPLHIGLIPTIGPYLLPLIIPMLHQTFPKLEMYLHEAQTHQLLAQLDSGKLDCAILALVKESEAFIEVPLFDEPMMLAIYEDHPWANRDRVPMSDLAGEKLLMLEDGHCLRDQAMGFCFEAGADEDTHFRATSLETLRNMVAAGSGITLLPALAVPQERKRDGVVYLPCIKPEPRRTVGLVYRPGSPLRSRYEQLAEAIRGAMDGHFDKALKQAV
Assay: EMSA
Conditions: EMSA with 10 nM probe, 5% acrylamide gel, RedSafe stain; buffer, salt, pH and temperature not given (as previously described, ref 27)

GAAATCGGGCGTGGCATTCTGATTACTCAACAGTAATTCACGAACCCTTTTCTCGATCTCTTTCGCTGTCGCCGGGTTCTCTTTCAGCCAGGTAGTCGCGTTCGCTTTACCCTGGCCAATCTTCT (double strand) [recA]
binding: no binding
